Tests used:
pepsin = target: T1, pepsin (Sus scrofa, UniProt P00791); experiment: Effect of enzyme treatment on antimicrobial activity; assay type: in vitro ADME; conditions: Pepsin 10 mg/mL, 37°C, 2 h, then boiled 2 min; residual antimicrobial activity vs before treatment, against L. monocytogenes ATCC 19114
T1 construct: purchased Sigma (USA) and Takara (Japan)
Experimental: (§1) To evaluate pH stability, the pH of crude bacteriocin solution was adjusted with 1 N HCl and 1 N NaOH and readjusted to pH 7 after incubation for 2 h at 37°C. To evaluate thermal stability, the crude bacteriocin solution was incubated at 4, 37, 50, 80, and 100°C for 15–30 minutes. All samples were cooled to room temperature before activity assays. To analyze sensitivity to various enzymes, the crude bacteriocin solution was treated at 37°C for 2 h with 10 mg/mL (final concentration) of the following enzymes: α-amylase, α-chymotrypsin, lipase, proteinase-K, pepsin, or trypsin. All enzymes used were from Sigma (USA) and Takara (Japan). The samples were then boiled for 2 min to denature the enzymes and cooled to room temperature. Samples were exposed to various organic solvents at a final concentration of 10% (v/v) to explore their effects on bacteriocin activity. After incubation for 2 h at 37°C, the residual activity was recorded. All treated samples were tested for residual activity against L. monocytogenes ATCC 19114, as described above.

proteinase-K = target: T2, proteinase-K (Parengyodontium album, UniProt P06873); experiment: as above; assay type: in vitro ADME; conditions: Proteinase-K 10 mg/mL, 37°C, 2 h, then boiled 2 min; residual antimicrobial activity vs before treatment, against L. monocytogenes ATCC 19114
T2 construct: purchased Sigma (USA) and Takara (Japan)
Experimental: as §1

trypsin = experiment: as above; assay type: in vitro ADME; conditions: Trypsin 10 mg/mL, 37°C, 2 h, then boiled 2 min; residual antimicrobial activity vs before treatment, against L. monocytogenes ATCC 19114
Experimental: as §1

α-amylase = experiment: as above; assay type: in vitro ADME; conditions: α-Amylase 10 mg/mL, 37°C, 2 h, then boiled 2 min; residual antimicrobial activity vs before treatment, against L. monocytogenes ATCC 19114
Experimental: as §1

α-chymotrypsin = target: T3, α-chymotrypsin (Bos taurus, UniProt P00766); experiment: as above; assay type: in vitro ADME; conditions: α-Chymotrypsin 10 mg/mL, 37°C, 2 h, then boiled 2 min; residual antimicrobial activity vs before treatment, against L. monocytogenes ATCC 19114
T3 construct: purchased Sigma (USA) and Takara (Japan)
Experimental: as §1

lipase = experiment: as above; assay type: in vitro ADME; conditions: Lipase 10 mg/mL, 37°C, 2 h, then boiled 2 min; residual antimicrobial activity vs before treatment, against L. monocytogenes ATCC 19114
Experimental: as §1

[1] = tested on: L. monocytogenes ATCC 19114; experiment: Thermal stability of antimicrobial activity; assay type: physicochemical, Listeria monocytogenes; conditions: cooled to room temperature, residual activity vs before treatment, against L. monocytogenes ATCC 19114
Experimental: as §1

[2] = tested on: L. monocytogenes ATCC 19114; experiment: Effect of organic solvents on antimicrobial activity; assay type: physicochemical, Listeria monocytogenes; conditions: 2 h at 37°C, residual activity against L. monocytogenes ATCC 19114
Experimental: as §1

[3] = tested on: L. monocytogenes ATCC 19114; experiment: pH stability of antimicrobial activity; assay type: physicochemical, Listeria monocytogenes; conditions: for Residual activity (%): 2 h at 37°C, residual activity against L. monocytogenes ATCC 19114
Experimental: as §1

[4] = tested on: L. monocytogenes ATCC 19114; experiment: Mode of action, time-kill study (viable cell count); assay type: cell-based, Listeria monocytogenes; conditions: 80 AU/mL added to L. monocytogenes at 4.2 × 10^8 CFU/mL, mid-exponential phase, viable counts at 1-hour intervals, mean of three experiments
Experimental: To determine the mode of action of the bacteriocin, the crude bacteriocin was added at a final concentration of 80 AU/mL to the culture at the mid-exponential growth phase of L. monocytogenes ATCC 19114 in 20 mL of TSB medium. Viable cells were counted at 1-hour intervals for the next 8 hours. Viable cell counting was repeated in triplicate and the mean values were calculated.

[5] = tested on: Lactobacillus plantarum KCCM 11322; experiment: Agar well diffusion assay; assay type: cell-based; conditions: cell-free supernatant, medium MRS
Experimental: (§2) Soil samples were collected from a farm in Cheonan city, Korea. They were mixed with sterile water (1 : 10, w/v), homogenized, and heated at 50°C for 60 min in a water bath. One mL of this suspension was inoculated into 100 mL of tryptic soy broth (Difco, USA) and incubated at 50°C for 24 h, after which microbial growth was monitored based on changes in turbidity of the cultures. Aliquots of the cultures were inoculated onto TSB plates, incubated at 30°C, and single colonies were isolated and screened for antimicrobial activity. The antimicrobial activity was performed according to Ramachandran et al. with modifications. It was expressed as the diameter of the inhibition zones around the wells using agar well diffusion assays with Listeria monocytogenes ATCC 19114 as the indicator strain.
(§3) Antimicrobial activity was detected using the agar well diffusion assay and tested against all indicator strains (Table 1) grown in their respective media, as indicated (Difco, USA). An aliquot of culture was centrifugated at 6,000 g for 15 min at 4°C (Mega 21R, Hanil Co., Republic of Korea), filtered using 0.45 μm pore-size cellulose acetate syringe filters (Advantec Co., Japan) to remove cells, then applied to wells on agar plates. Experiments were done in no less than five individual trials having no less than three replications.
(§4) The plates were incubated at the optimal temperature of the test organism. The bacteriocin titer was determined using the serial twofold dilution method. Activity was defined as the reciprocal of the dilution after the last serial dilution giving a zone of inhibition and was expressed as activity units (AU) per milliliter. All measurements were done in triplicate and the means are shown as the results.

[6] = tested on: Bacillus cereus KCTC 1661; experiment: Agar well diffusion assay; assay type: cell-based; conditions: cell-free supernatant, medium LB
Experimental: as §2, §3, §4

[7] = tested on: Streptococcus agalactiae ATCC 13813; experiment: Agar well diffusion assay; assay type: cell-based; conditions: cell-free supernatant, medium TSB
Experimental: as §2, §3, §4

[8] = tested on: Streptococcus mutans ATCC 25175; experiment: Agar well diffusion assay; assay type: cell-based; conditions: cell-free supernatant, medium BHI
Experimental: as §2, §3, §4

[9] = tested on: Lactobacillus delbrueckii KCCM 11357; experiment: Agar well diffusion assay; assay type: cell-based; conditions: cell-free supernatant, medium MRS
Experimental: as §2, §3, §4

[10] = tested on: Klebsiella pneumoniae subsp. pneumoniae KCCM 11418; experiment: Agar well diffusion assay; assay type: cell-based; conditions: cell-free supernatant, medium NB
Experimental: as §2, §3, §4

Escherichia coli K88 = experiment: Agar well diffusion assay; assay type: cell-based; conditions: cell-free supernatant, medium LB
Experimental: as §2, §3, §4

[11] = tested on: Salmonella gallinarum KVCC-BA0700722; experiment: Agar well diffusion assay; assay type: cell-based; conditions: cell-free supernatant, medium NB
Experimental: as §2, §3, §4

[12] = tested on: Candida albicans KCTC 7122; experiment: Agar well diffusion assay; assay type: cell-based; conditions: cell-free supernatant, medium PDA
Experimental: as §2, §3, §4

[13] = tested on: Lactobacillus salivarius CPM7 (our isolate); experiment: Agar well diffusion assay; assay type: cell-based; conditions: cell-free supernatant, medium MRS
Experimental: as §2, §3, §4

[14] = tested on: Lactobacillus acidophilus KCCM 32820; experiment: Agar well diffusion assay; assay type: cell-based; conditions: cell-free supernatant, medium MRS
Experimental: as §2, §3, §4

[15] = tested on: Bacillus licheniformis KCCM 12145; experiment: Agar well diffusion assay; assay type: cell-based; conditions: cell-free supernatant, medium NB
Experimental: as §2, §3, §4

[16] = tested on: Pseudomonas aeruginosa CCARM 2003; experiment: Agar well diffusion assay; assay type: cell-based; conditions: cell-free supernatant, medium LB
Experimental: as §2, §3, §4

[17] = tested on: Staphylococcus aureus subsp. aureus (MRSA) KCCM 40510; experiment: Agar well diffusion assay; assay type: cell-based; conditions: cell-free supernatant, medium NB
Experimental: as §2, §3, §4

[18] = tested on: Pseudomonas aeruginosa KCCM 11266; experiment: Agar well diffusion assay; assay type: cell-based; conditions: cell-free supernatant, medium NB
Experimental: as §2, §3, §4

[19] = tested on: Staphylococcus aureus KFRI 00188; experiment: Agar well diffusion assay; assay type: cell-based; conditions: cell-free supernatant, medium NB
Experimental: as §2, §3, §4

[20] = tested on: Salmonella enteritidis KVCC-BA0700654; experiment: Agar well diffusion assay; assay type: cell-based; conditions: cell-free supernatant, medium NB
Experimental: as §2, §3, §4

[21] = tested on: Salmonella typhimurium KCCM 40253; experiment: Agar well diffusion assay; assay type: cell-based; conditions: cell-free supernatant, medium NB
Experimental: as §2, §3, §4

[22] = tested on: Listeria monocytogenes ATCC 19114; experiment: Agar well diffusion assay; assay type: cell-based; conditions: cell-free supernatant, medium TSB
Experimental: as §2, §3, §4

[23] = tested on: Lactobacillus johnsonii PF01 (our isolate); experiment: Agar well diffusion assay; assay type: cell-based; conditions: cell-free supernatant, medium MRS
Experimental: as §2, §3, §4

[24] = tested on: Shigella flexneri KCCM 40414; experiment: Agar well diffusion assay; assay type: cell-based; conditions: cell-free supernatant, medium NB
Experimental: as §2, §3, §4

[25] = tested on: Salmonella enteritidis KCCM 12021; experiment: Agar well diffusion assay; assay type: cell-based; conditions: cell-free supernatant, medium NB
Experimental: as §2, §3, §4

[26] = tested on: Enterococcus faecalis (VRE) CCARM 0011; experiment: Agar well diffusion assay; assay type: cell-based; conditions: cell-free supernatant, medium NB
Experimental: as §2, §3, §4

[27] = tested on: Salmonella pullorum KVCC-BA0702509; experiment: Agar well diffusion assay; assay type: cell-based; conditions: cell-free supernatant, medium NB
Experimental: as §2, §3, §4

T2 sequence (P06873 106-384): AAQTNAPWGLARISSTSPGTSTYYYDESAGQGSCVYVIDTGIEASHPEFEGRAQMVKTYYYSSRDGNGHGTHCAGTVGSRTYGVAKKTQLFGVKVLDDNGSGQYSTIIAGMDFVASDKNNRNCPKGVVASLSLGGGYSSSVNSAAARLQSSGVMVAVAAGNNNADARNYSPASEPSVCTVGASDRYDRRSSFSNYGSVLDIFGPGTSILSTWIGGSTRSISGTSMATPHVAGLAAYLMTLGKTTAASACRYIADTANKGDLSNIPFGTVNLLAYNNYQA
T1 sequence (P00791 60-385): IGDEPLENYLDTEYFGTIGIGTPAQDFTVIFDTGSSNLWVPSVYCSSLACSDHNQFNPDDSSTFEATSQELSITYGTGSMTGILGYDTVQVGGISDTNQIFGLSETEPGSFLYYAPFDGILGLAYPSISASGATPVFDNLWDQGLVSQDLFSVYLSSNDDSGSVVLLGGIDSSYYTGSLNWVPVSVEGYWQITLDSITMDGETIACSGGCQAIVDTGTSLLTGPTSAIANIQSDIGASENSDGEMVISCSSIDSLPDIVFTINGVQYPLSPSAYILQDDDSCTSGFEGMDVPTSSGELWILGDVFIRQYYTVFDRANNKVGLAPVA

NH2-X-Ala-Trp-Tyr-Asp-Ile-Arg-Lys-Leu-Gly-Asn-Lys-Gly-Ala [RX7 bacteriocin, Bacteriocin of approximately 5 kDa produced by Bacillus amyloliquefaciens RX7; homologous to lantibiotic haloduracin A1]
Residual activity (%) (pepsin): 100% | Residual activity (%) (proteinase-K): 0% | Residual activity (%) (trypsin): 0% | Residual activity (%) (α-amylase): 100% | Residual activity (%) (α-chymotrypsin): 0% | Residual activity (%) (lipase): 100% | Residual activity (%) ([1]; heat 4°C/30 min): 100% | Residual activity (%) ([1]; heat 37°C/30 min): 100% | Residual activity (%) ([1]; heat 50°C/30 min): 100% | Residual activity (%) ([1]; heat 80°C/30 min): 100% | Residual activity (%) ([1]; heat 100°C/30 min): 80% | Residual activity (%) ([1]; heat 121°C/15 min): 20% | Residual activity (%) ([2]; Acetone 10% (v/v)): 90% | Residual activity (%) ([2]; Acetonitrile 10% (v/v)): 90% | Residual activity (%) ([2]; Butanol 10% (v/v)): 80% | Residual activity (%) ([2]; Chloroform 10% (v/v)): 80% | Residual activity (%) ([2]; Ethanol 10% (v/v)): 90% | Residual activity (%) ([2]; Methanol 10% (v/v)): 80% | pH range in which full activity was observed ([3]; 2 h at 37°C at the given pH, readjusted to pH 7, activity against L. monocytogenes ATCC 19114): 3–8 | Residual activity (%) ([3]; pH 1 (1 N HCl/1 N NaOH), readjusted to pH 7): 80% | Residual activity (%) ([3]; pH 2 (1 N HCl/1 N NaOH), readjusted to pH 7): 90% | Residual activity (%) ([3]; pH 3 (1 N HCl/1 N NaOH), readjusted to pH 7): 100% | Residual activity (%) ([3]; pH 4 (1 N HCl/1 N NaOH), readjusted to pH 7): 100% | Residual activity (%) ([3]; pH 5 (1 N HCl/1 N NaOH), readjusted to pH 7): 100% | Residual activity (%) ([3]; pH 6 (1 N HCl/1 N NaOH), readjusted to pH 7): 100% | Residual activity (%) ([3]; pH 7 (1 N HCl/1 N NaOH)): 100% | Residual activity (%) ([3]; pH 8 (1 N HCl/1 N NaOH), readjusted to pH 7): 100% | Residual activity (%) ([3]; pH 9 (1 N HCl/1 N NaOH), readjusted to pH 7): 90% | Residual activity (%) ([3]; pH 10 (1 N HCl/1 N NaOH), readjusted to pH 7): 80% | incubation time for complete bactericidal action (no colony formation on TSB agar) [4]: 2 h | Inhibition zone (mm) [5]: + (less than 10 mm) | Inhibition zone (mm) [6]: ++ (less than 20 mm) | Inhibition zone (mm) [7]: ++ (less than 20 mm) | Inhibition zone (mm) [8]: + (less than 10 mm) | Inhibition zone (mm) [9]: + (less than 10 mm) | Inhibition zone (mm) [10]: + (less than 10 mm) | Inhibition zone (mm) (Escherichia coli K88): ++ (less than 20 mm) | Inhibition zone (mm) [11]: ++ (less than 20 mm) | Inhibition zone (mm) [12]: ++ (less than 20 mm) | Inhibition zone (mm) [13]: + (less than 10 mm) | Inhibition zone (mm) [14]: + (less than 10 mm) | Inhibition zone (mm) [15]: ++ (less than 20 mm) | Inhibition zone (mm) [16]: ++ (less than 20 mm) | Inhibition zone (mm) [17]: + (less than 10 mm) | Inhibition zone (mm) [18]: ++ (less than 20 mm) | Inhibition zone (mm) [19]: ++ (less than 20 mm) | Inhibition zone (mm) [20]: ++ (less than 20 mm) | Inhibition zone (mm) [21]: ++ (less than 20 mm) | Inhibition zone (mm) [22]: +++ (less than 30 mm) | Inhibition zone (mm) [23]: + (less than 10 mm) | Inhibition zone (mm) [24]: ++ (less than 20 mm) | Inhibition zone (mm) [25]: ++ (less than 20 mm) | Inhibition zone (mm) [26]: ++ (less than 20 mm) | Inhibition zone (mm) [27]: + (less than 10 mm)

Reference: PMC4864540, “Isolation and Characterization of a Broad Spectrum Bacteriocin from Bacillus amyloliquefaciens RX7” (BioMed Research International, 2016)
